Assay results reported in patent publication US20250340622A1 (AstraZeneca / MedImmune, published 2025).

Columns and labels:
Assay in all cases: cell-based or functional assay
[1] = molecular target: RSV B F protein variant K68N (RSV B)
[2] = molecular target: RSV B F protein variant K68Q:S211N (RSV B)
[3] = molecular target: RSV B F protein variant N201S (RSV B)
[4] = molecular target: RSV B F protein variant K65Q:K68N (RSV B)
[5] = molecular target: RSV B F protein variant S211N (RSV B)
[6] = molecular target: RSV B F protein variant K68N:N201S (RSV B, strain B9320)
[7] = molecular target: RSV B F protein variant N208S (RSV B)
[8] = molecular target: RSV B F protein variant K68Q:I206M:Q209R (RSV B)
[9] = molecular target: RSV B F protein variant I206M:Q209R:S211N (RSV B)
[10] = molecular target: RSV B F protein variant N208D (RSV B, strain B9320)
[11] = molecular target: RSV B F protein variant K68N:N208S (RSV B, strain B9320)
[12] = molecular target: RSV B F protein variant I206M:Q209R (RSV B)
[13] = molecular target: RSV B F protein variant N201T:I206M:Q209R (RSV B)
[14] = molecular target: RSV B F protein variant I64T:K68E:I206M:Q209R (RSV B)
[15] = molecular target: RSV B F protein variant L203I (RSV B)

B1: nirsevimab (antibody, human IgG1, kappa, V domains shown)
VH: QVQLVQSGAEVKKPGSSVMVSCQASGGLLEDYIINWVRQAPGQGPEWMGGIIPVLGTVHYGPKFQGRVTITADESTDTAYMELSSLRSEDTAMYYCATETALVVSETYLPHYFDNWGQGTLVTVSS
VL: DIQMTQSPSSLSAAVGDRVTITCQASQDIVNYLNWYQQKPGKAPKLLIYVASNLETGVPSRFSGSGSGTDFSLTISSLQPEDVATYYCQQYDNLPLTFGGGTKVEIKR
B1 was tested, and the “fold reduced susceptibility to nirsevimab neutralization (recombinant RSV neutralization susceptibility assay)” value [1] was 29.9 fold, the “fold reduced susceptibility to nirsevimab neutralization (recombinant RSV neutralization susceptibility assay)” value [2] was 35.7 fold and the “fold reduced susceptibility to nirsevimab neutralization (recombinant RSV neutralization susceptibility assay)” value [3] was 127 fold. The “fold reduced susceptibility to nirsevimab neutralization (recombinant RSV neutralization susceptibility assay)” value [4] was 1240 fold, the “fold change in susceptibility to nirsevimab” value (“fold change in susceptibility” for short) [5] was 1.2 fold and the “fold reduced susceptibility to nirsevimab (recombinant RSV B variant)” value [6] was over 13000 fold. The “fold reduced susceptibility to nirsevimab (recombinant RSV B variant)” value [7] was over 24000 fold, the “fold reduced susceptibility to nirsevimab neutralization (recombinant RSV neutralization susceptibility assay)” value [7] was over 387 fold and the “fold reduced susceptibility to nirsevimab neutralization (recombinant RSV neutralization susceptibility assay)” value [8] was 46.4 fold. The “fold change in susceptibility” value [9] was 0.5 fold, the “fold reduced susceptibility to nirsevimab (recombinant RSV B variant)” value [10] was over 90000 fold and the “fold reduced susceptibility to nirsevimab (recombinant RSV B variant)” value [11] was over 90000 fold. The “fold change in susceptibility” value [12] was 0.23 fold, the “fold reduced susceptibility to nirsevimab neutralization (recombinant RSV neutralization susceptibility assay)” value [13] was over 418 fold and the “fold reduced susceptibility to nirsevimab neutralization (recombinant RSV neutralization susceptibility assay)” value [14] was over 447 fold. For the same binder, the “fold reduced susceptibility to nirsevimab neutralization (recombinant RSV neutralization susceptibility assay)” value [15] was 3000 fold.
